The target in test [1] is OmpG-PEG2-biotin (Escherichia coli) (UniProt P76045). The test can be described thus: cell-based or functional assay.
For test [2] the target is unchanged. The test can be described thus: single channel recording of one OmpG-PEG2-biotin pore, 1 nM mAb.
For test [3] the target is unchanged. The test is described as follows: single channel recording of one OmpG-PEG2-biotin pore, from koff and kon.
For test [4] the target is unchanged. The test is described as follows: single channel recording of one OmpG-PEG2-biotin pore, inter-event intervals against mAb concentration.
The target is the same in test [5]. The test can be described thus: single channel recording of one OmpG-PEG2-biotin pore in a planar lipid bilayer, dwell times of binding events.
Another test concerns the target T1, BSA (UniProt P02769 25-607).
T1 construct: Control protein
The test is described as follows: single channel recording in planar lipid bilayer.

Consider two molecules from patent US20150080242A1 (UNIVERSITY OF MASSACHUSETTS, published 2015).

Usually Kd stands for the equilibrium constant for the complex coming apart. Lower therefore signals higher affinity. As usually defined, the kon is the rate constant with which the complex forms. Read a low kon as slow association. One may read the koff as the first-order rate constant of dissociation. A higher koff goes with a short-lived complex.

T1 sequence (P02769 25-607 limits assumed): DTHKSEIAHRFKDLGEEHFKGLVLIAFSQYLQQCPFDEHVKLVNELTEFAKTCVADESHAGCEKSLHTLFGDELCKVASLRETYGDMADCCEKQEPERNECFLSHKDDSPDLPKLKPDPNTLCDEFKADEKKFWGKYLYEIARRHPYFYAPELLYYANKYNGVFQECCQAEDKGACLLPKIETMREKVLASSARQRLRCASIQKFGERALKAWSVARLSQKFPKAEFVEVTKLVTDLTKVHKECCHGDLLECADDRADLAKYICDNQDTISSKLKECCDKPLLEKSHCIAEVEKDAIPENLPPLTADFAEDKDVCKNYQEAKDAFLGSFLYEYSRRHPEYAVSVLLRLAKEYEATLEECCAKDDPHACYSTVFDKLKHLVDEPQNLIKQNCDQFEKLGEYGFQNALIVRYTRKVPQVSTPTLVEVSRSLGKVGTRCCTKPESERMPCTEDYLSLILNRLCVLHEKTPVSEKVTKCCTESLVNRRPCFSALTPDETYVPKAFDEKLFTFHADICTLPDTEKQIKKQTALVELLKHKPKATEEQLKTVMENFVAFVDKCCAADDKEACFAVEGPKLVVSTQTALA

“Mouse anti-biotin monoclonal antibody (MS-1048-P1, Thermo Scientific)”: in test [1], the Event frequency was 201 s⁻¹, the Gating duration is 4.2 s, the Inter-event duration turned out to be 3.67 s and the Open probability is 0.52. Also, in test [1], the Relative conductance of open state (%) is 86.4% and the open probability of the mAb bound state at -50 mV came to 0.4. This molecule returned a mean inter-event interval at 1 nM mAb in test [2] of 74.5 s. Besides, in test [3], the Kd was 11.2 nM. The molecule also registered an association rate constant (kon) in test [4] of 2.3e+07 M⁻¹ s⁻¹. The molecule also registered a koff in test [5] of 0.25 s⁻¹.

B1: OmpG-PEG2-biotin (other)
chain: GEERNDWHFNIGAMYEIENVEGYGEDMDGLAEPSVYFNAANGPWRIALAYYQEGPVDYSAGKRGTWFDRPELEVHYQFLENDDFSFGLTGGFRNYGYHYVDEPGKDTANMQRWKIAPDWDVKLTDDLRFNGWLSMYKFANDLNTTGYADTRVETETGLQYTFNETVALRVNYYLERGFNMDDSRNNGEFSTQEIRAYLPLTLGNHSVTPYTRIGLDRWSNWDWQCDIEREGHDFNRVGLFYGYDFQNGLSVSLEYAFEWQDHDEGDSDKFHYAGVGVNYSF
modifications: maleimide-PEG2-biotin on Cys 224 (D224C, loop 6)
notes: also called OmpG-PEG2-Biotin pore; OmpG-biotin
On to B1, for which, in the test with BSA, the binding result was “no binding (tested: 1 µM)”.
